Data on one substance can be found in article PMC3994028.

This assay has as its target non-muscle myosin IIB (NM IIB) (rat (endogenous in hippocampal neurons of Sprague-Dawley rats and in PC12)) (UniProt Q9JLT0). As to the kind of experiment: proximity ligation; Duolink in situ PLA on fixed, permeabilised cultured hippocampal neurons (growth cones); primary antibodies against βPIX (or kalirin) and NM IIB, or βPIX and GIT; with or without 50 µM BBS for 15 or 30 min.
UniProt Q9JLT0, sequence (Q9JLT0 whole entry): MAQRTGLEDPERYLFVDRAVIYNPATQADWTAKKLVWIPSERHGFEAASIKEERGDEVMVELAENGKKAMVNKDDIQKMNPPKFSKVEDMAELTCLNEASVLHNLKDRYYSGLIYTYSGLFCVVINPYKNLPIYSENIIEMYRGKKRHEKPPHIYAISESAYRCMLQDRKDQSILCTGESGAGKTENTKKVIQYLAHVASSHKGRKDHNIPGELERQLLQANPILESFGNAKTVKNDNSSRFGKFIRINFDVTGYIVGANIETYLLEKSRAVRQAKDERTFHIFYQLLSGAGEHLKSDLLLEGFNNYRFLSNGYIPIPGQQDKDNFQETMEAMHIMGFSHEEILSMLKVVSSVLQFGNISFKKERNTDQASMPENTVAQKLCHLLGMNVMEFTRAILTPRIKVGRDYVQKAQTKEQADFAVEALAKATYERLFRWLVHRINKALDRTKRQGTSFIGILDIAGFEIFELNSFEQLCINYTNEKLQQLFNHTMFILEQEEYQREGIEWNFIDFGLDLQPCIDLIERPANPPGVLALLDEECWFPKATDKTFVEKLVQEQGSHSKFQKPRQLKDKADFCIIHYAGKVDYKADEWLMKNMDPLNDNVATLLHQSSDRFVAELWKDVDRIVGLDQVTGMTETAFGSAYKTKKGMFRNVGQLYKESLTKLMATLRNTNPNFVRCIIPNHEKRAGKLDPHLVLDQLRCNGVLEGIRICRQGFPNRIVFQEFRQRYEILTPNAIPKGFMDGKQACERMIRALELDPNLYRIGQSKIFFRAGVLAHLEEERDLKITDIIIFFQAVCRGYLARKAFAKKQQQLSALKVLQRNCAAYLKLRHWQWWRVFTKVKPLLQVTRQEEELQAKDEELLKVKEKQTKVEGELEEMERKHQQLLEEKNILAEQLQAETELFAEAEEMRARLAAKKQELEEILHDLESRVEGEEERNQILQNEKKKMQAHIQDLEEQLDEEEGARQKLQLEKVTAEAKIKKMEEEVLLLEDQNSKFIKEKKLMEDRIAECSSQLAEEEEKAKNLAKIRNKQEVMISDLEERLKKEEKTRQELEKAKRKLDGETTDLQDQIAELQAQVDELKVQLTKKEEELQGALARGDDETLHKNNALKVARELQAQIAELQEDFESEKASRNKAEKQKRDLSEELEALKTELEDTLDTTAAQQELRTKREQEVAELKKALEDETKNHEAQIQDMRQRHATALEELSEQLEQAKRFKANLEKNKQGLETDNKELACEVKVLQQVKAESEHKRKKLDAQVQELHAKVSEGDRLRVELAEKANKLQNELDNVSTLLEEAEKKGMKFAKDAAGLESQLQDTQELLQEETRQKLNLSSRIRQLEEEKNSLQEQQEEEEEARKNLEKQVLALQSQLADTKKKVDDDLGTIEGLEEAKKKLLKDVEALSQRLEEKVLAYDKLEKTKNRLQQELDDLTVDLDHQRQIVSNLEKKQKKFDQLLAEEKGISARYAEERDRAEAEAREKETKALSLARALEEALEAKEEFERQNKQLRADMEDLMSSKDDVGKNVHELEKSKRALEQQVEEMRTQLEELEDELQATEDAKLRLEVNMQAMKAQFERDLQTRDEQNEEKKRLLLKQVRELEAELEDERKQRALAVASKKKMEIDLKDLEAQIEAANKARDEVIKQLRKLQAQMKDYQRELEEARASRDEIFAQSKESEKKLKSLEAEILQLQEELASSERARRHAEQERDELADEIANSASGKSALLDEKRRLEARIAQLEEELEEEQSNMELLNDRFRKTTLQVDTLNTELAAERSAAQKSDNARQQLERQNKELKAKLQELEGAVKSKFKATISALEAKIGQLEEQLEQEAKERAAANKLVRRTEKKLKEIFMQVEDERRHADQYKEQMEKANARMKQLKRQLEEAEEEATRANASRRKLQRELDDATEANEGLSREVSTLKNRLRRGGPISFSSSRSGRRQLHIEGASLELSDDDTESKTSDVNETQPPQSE

Regarding “βPIX (endogenous, hippocampal neurons) (from UniProt O55043 1-646) (natural protein)”, the PLA fluorescence intensity in the actin-positive area 30 min after BBS, percent of untreated growth cones (% of untreated) was 51.
